We go through four substances from publication PMC4477659.

Common to all, as to experiment: filter binding
What all share (conditions): Filter binding: 10 mM HEPES, 3 mM MgCl2, 1 mM DTT, 5% glycerol, 100 mM KCl, 0.05 mg/ml tRNA, 5 uM BSA, 30 C 15 min; UV crosslinking: 10 mM HEPES pH 7.9, 3 mM …

The subject of data set [1] is PTBP3 ΔRRM1 (human), O95758-5.
In data set [2] the test system is T1, PTBP3 AUG4 isoform del1-31 (human), O95758-5.
T1 sequence: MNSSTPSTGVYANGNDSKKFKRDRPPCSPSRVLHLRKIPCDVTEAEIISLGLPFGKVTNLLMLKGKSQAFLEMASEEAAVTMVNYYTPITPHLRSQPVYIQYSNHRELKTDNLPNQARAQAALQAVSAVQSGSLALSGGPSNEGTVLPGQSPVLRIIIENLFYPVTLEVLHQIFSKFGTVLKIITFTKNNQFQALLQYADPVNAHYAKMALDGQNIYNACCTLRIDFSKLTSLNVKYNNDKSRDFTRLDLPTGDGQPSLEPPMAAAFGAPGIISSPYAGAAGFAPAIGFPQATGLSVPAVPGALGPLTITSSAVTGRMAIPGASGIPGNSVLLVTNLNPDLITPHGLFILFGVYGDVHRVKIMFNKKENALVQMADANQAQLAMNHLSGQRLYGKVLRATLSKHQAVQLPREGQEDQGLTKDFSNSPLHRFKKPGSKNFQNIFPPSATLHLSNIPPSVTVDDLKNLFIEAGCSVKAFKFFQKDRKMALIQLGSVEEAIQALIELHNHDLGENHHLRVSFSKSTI

Data set [3] deals with PTBP3 AUG11 isoform del1-103 (human), O95758-5.

As usually defined, the Kd is the constant that tells how readily two partners part at equilibrium. A high value points to a looser complex. On to CUCUCUCUCUCUCUCUCUCUCUCU [[CUCUCU]4], for which the Kd was determined as 0.0758 µM in data set [1], 0.0348 µM in data set [2] and 0.0437 µM in data set [3].
In the case of EMCV IRES, the Kd in data set [1] was found to be 0.0065 µM; in data set [2], 0.0064 µM; in data set [3], 0.0043 µM.
Regarding MTDH exon 7 RNA, the dissociation constant Kd worked out at 0.0911 µM in data set [1], 0.0915 µM in data set [2] and 0.0632 µM in data set [3].
On to PV IRES, for which the Kd stood at 0.0236 µM in data set [1], 0.0441 µM in data set [2] and 0.0234 µM in data set [3].
